US20220411487A1 (Regeneron, published 2022)
Residue numbers refer to the chain shown, from its start. Names may count otherwise.

T1: full-length mouse TMPRSS6 with a C-terminal triple myc tag on HEK293.hHJV cells (HEK293.hHJV/3xMyc.mTMPRSS6) (mouse, UniProt Q9DBI0 1-811)
T1 sequence: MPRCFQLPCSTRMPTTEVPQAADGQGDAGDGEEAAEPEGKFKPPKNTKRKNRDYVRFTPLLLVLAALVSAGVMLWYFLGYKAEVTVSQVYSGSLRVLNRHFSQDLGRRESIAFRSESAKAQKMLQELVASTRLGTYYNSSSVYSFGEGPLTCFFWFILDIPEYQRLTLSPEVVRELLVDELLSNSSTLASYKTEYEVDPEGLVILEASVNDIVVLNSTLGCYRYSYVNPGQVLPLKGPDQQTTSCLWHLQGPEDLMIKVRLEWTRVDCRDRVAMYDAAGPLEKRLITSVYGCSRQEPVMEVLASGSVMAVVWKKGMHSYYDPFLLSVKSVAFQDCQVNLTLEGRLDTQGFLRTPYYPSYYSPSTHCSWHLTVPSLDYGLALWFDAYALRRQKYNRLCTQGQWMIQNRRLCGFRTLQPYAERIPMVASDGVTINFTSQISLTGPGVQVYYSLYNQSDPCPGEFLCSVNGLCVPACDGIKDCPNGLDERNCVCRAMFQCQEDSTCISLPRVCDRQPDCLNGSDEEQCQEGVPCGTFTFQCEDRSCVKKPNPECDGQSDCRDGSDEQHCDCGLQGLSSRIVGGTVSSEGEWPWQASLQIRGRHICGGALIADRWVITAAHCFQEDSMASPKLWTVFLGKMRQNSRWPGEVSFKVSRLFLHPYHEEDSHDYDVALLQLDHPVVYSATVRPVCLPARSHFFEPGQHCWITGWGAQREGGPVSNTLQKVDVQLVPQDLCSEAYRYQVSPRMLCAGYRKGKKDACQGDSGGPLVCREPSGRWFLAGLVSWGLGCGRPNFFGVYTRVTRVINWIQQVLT

T2: extracellular domain of cynomolgous monkey TMPRSS6 (V673M) with N-terminal 8xHistidine, CHO conditioned media (cynomolgous monkey, UniProt Q8IU80 77-811 (human entry))
T2 chain: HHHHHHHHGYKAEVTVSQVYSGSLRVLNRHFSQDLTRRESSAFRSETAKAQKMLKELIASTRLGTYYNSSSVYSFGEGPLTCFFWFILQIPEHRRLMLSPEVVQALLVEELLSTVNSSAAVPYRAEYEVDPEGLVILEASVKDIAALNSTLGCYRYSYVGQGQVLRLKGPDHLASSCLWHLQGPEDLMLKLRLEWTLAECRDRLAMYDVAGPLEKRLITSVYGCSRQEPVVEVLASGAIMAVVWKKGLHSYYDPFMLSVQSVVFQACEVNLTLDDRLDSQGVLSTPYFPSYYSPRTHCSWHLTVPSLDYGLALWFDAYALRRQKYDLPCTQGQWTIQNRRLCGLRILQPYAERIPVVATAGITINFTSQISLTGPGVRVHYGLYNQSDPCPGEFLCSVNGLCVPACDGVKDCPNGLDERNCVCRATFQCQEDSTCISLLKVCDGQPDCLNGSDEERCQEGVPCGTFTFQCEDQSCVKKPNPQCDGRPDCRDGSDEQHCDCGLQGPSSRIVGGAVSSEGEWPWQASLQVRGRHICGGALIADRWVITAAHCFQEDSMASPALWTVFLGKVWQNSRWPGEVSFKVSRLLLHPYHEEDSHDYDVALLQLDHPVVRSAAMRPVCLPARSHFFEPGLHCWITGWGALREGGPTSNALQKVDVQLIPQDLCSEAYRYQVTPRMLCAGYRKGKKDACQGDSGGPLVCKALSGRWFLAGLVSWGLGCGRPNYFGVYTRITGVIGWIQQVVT

T3: full length cynomolgous monkey TMPRSS6 on HEK293 cells (HEK293/mfTMPRSS6) (cynomolgous monkey/Macaca fascicularis, UniProt Q8IU80 10-811 (human entry))
T3 chain: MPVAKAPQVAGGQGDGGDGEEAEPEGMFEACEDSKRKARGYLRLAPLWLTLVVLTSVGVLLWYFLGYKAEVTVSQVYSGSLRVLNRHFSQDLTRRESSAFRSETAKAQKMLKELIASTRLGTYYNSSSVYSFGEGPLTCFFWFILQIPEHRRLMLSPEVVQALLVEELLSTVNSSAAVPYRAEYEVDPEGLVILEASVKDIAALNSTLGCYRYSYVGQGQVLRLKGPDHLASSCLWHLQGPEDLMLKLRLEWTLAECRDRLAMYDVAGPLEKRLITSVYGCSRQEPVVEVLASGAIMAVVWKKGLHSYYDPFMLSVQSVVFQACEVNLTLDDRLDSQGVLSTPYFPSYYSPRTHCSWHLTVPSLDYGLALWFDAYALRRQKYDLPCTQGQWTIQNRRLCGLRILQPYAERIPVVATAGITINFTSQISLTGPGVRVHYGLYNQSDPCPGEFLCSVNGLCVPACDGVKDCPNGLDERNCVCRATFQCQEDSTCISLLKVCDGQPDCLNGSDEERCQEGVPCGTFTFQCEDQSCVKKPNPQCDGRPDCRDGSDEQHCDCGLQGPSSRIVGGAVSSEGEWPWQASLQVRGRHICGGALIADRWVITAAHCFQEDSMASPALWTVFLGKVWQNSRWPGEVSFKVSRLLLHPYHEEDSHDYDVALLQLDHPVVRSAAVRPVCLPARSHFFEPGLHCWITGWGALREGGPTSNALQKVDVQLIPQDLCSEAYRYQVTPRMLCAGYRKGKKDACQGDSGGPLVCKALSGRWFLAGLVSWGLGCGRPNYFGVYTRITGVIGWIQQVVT

B1: REGN7969 (antibody, human IgG4 S228P, kappa, V domains shown)
VH: QVQLVESGGGVVQPGRSLRLSCAASGFTFNNYGMHWVRQAPGKGLEWVAIISYDGSNEYYSDSVKGRFTISRDNSKNTLYLQMNSLRAEDTAVYYCARDQDYGGNLFHYWGQGTLVTVSS
VL: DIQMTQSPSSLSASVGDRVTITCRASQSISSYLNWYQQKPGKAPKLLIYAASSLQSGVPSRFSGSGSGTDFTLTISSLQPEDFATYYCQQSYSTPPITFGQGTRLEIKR
notes: fully human; human IgG4 Fc with hinge S108P; also called mAb37746
B2: REGN7971 (antibody, human IgG4 S228P, kappa, V domains shown)
VH: B1 VH with N30S, N31T, E58D, S61L, S85N, R98K, D101G, H108A, Y109S
VL: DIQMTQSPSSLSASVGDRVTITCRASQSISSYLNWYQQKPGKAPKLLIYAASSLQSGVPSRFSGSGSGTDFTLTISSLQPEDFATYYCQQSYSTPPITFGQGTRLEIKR
notes: fully human; human IgG4 Fc with hinge S108P; also called mAb37763
B3: REGN7999 (antibody, human IgG4 S228P, kappa, V domains shown)
VH: EVQLVESGGGLVQPGGSLRLSCAASGFTFSSYAMTWVRQAPGKGLEWVSAISGSDTSTYYADSVKGRFTISRDNSKNTLFLQMNSLRAEDTAVYYCAKHQDYDFSYYYSAMDVWGQGTTVTVSS
VL: DIQMTQSPSSLSASVGDRVIITCRASQDFNSWLAWYQQKPGKAPKLLIYAASSLQSGVPSRFSGSGSGTDFTLTISSLQPEDFATYYCQQTDSFPFTFGPGTKVDIKR
notes: fully human; human IgG4 Fc with hinge S108P; also called mAb41450
B4: REGN7974 (antibody, human IgG4 S228P, kappa, V domains shown)
VH: EVQLVESGGGLVQPGRSLRLSCIASGFNFGDYGMSWVRQAPGKGLEWVGFIRSKAYGGTTEYAASVKGRFTISRDDSKSIAYLQMNSLKTEDAAMYYCSRDYYDILTGYYGDYWGQGTLVTVSS
VL: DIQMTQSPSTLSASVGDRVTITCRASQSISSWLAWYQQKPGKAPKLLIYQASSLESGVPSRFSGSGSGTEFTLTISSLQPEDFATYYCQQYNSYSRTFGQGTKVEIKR
notes: fully human; human IgG4 Fc with hinge S108P; also called mAb41422
B5: REGN8023 (antibody, human IgG4 S228P, kappa, V domains shown)
VH: EVQLVESGGGLVKPGGSLRISCAASGFIFVDYAMHWVRQAPGKGLEWVSGISWNSGSIGYADSVKGRFTISRDNAKKSLYLQMSGLRPEDTALYYCVKSGFYYVRSYFDNWGQGTLVTVSS
VL: DIVMTQSPLSLPVTPGEPASISCRSSQSLLDSDDGNTYLDWYLRKPGQSPQLLIYTLSYRASGVPDRFSGSGSGTDFTLKISRVEADDVGVYYCMQRIEFPLTFGGGTKVEIKR
notes: fully human; human IgG4 Fc with hinge S108P; also called mAb37699
B6: REGN7977 (antibody, V domains shown)
VH: EVQLVESGGGLVKPGGSLRVSCAASGVTFSNVWMSWVRQVPGKGLEWVGRIKSKTDGGTTDYAAPVKGRFTISKDDSKNTLFLQMNSLKTEDTAVYYCTTETGDFWSGYYPRFQHWGQGTLVTVSS
VL: DIQMTQSPSSLSASVGDRVTITCRASQYISTYLNWYQQKPGKAPSLLIYAASSLQSGVPSRFSGSGSGTDFTLTISSLQPEDFASYSCQQSYSTPPYTFGQGTKLEIKR
notes: fully human; human IgG4 Fc with hinge S108P; also called mAb41465

molecular target: T1, full-length mouse TMPRSS6 with a …; test: cell-based or functional assay

| Binder | Inhibition (%) of soluble hHJV release (ELISA) [%] | IC50, soluble hHJV release (ELISA) [nM] |
| --- | --- | --- |
| B1 | < 1 | – |
| B2 | 10.2 | – |
| B3 | 98.5 | 0.0826 |
| B4 | 11.8 | – |
| B5 | 42 | 0.274 |
| B6 | 46.4 | – |

molecular target: extracellular domain of Human TMPRSS6 with N-terminal 8xHistidine, CHO conditioned media (human, UniProt Q8IU80 68-802, limits assumed); test: cell-based or functional assay
Sequence (Q8IU80 other isoform, or with tags, fused parts or gaps limits assumed): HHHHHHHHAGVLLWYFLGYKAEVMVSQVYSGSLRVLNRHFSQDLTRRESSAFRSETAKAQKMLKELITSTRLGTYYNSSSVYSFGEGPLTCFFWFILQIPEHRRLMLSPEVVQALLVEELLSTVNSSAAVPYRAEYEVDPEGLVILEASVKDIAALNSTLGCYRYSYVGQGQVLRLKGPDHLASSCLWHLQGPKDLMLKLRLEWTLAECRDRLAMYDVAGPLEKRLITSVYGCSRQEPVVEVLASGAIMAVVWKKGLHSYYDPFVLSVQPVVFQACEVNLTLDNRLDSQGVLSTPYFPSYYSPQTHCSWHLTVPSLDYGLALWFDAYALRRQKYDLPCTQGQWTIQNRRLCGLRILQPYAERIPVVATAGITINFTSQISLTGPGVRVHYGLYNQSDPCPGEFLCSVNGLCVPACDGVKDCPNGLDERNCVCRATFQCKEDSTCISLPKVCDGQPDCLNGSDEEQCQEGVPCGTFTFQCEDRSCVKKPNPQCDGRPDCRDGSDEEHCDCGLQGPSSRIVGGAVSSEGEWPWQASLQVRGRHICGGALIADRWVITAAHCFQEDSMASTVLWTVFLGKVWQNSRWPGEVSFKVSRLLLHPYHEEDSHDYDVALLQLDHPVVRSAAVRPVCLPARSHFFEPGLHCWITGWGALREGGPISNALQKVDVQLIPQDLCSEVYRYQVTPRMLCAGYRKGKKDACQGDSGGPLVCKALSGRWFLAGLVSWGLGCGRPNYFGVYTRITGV

| Binder | % inhibition of enzymatic activity, CM bioassay [%] | IC50, CM bioassay [nM] |
| --- | --- | --- |
| B1 | 71 | > 10 |
| B2 | 65 | > 10 |
| B3 | 98 | 3 |
| B4 | 85 | 400 |
| B5 | 98 | 0.71 |
| B6 | 94 | 23 |

Molecular target: T2, extracellular domain of cynomolgous …
Test: cell-based or functional assay

| Binder | % inhibition of enzymatic activity, CM bioassay [%] | IC50, CM bioassay [nM] |
| --- | --- | --- |
| B1 | 66 | > 50 |
| B2 | 68 | > 50 |
| B3 | 98 | 1.7 |
| B4 | 69 | > 50 |
| B5 | 98 | 0.74 |
| B6 | 89 | 50 |

Molecular target: T3, full length cynomolgous monkey TMPRSS6 …
Test: cell-based or functional assay

| Binder | % inhibition, HEK293 bioassay, 30 min pre-incubation 25 C [%] | IC50, HEK293 bioassay, 30 min pre-incubation 25 C [nM] |
| --- | --- | --- |
| B1 | 87 | 8.8 |
| B2 | 87 | 3.1 |
| B3 | 90 | 6.5 |
| B4 | 81 | 30 |
| B5 | 94 | 0.66 |
| B6 | 87 | 8.1 |
